From article PMC7332683, “A ferredoxin-dependent dihydropyrimidine dehydrogenase in Clostridium chromiireducens” (Bioscience Reports, 2020) come the findings set out here.

One data set addresses T1, PydAc (Clostridium chromiireducens, UniProt A0A399ILH0).
T1 construct: gene preA; FMN and two Fdx domains, no FAD/NADPH domain; strain C1 (DSM12136) is given only for the growth test
T1 sequence (A0A399ILH0 1-499): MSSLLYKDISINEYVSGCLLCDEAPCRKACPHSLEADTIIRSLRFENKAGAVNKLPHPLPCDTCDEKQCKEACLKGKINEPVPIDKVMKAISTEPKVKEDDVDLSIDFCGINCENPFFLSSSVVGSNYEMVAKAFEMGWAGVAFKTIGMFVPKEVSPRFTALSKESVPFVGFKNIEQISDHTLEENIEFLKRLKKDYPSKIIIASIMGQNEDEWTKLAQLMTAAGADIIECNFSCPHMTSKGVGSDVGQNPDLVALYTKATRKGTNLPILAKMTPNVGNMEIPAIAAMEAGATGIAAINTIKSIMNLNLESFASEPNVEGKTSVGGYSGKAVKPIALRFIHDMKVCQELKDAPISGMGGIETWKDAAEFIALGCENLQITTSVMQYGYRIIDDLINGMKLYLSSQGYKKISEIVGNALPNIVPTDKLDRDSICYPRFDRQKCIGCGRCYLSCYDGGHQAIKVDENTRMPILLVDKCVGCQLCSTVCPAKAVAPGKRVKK
In words: spectrophotometric assay of reduced methyl viologen oxidation at […] nm, anaerobic; activity with and without added FMN. It is filed as biochemical. Particulars: 15 uM FMN added, uracil, pH 7.5, predominantly apo recombinant enzyme.

Substrate in the data set “purified protein”: O=c1cc[nH]c(=O)[nH]1
The experiment in a line: purified protein. It is filed as biochemical, Clostridium chromiireducens. The conditions noted are these: 0.1 mM reduced methyl viologen (MV+), 15 uM FMN, 0.1 M KCl, 20 mM Tris-HCl, pH 7.5, 0.2 uM reconstituted PydAc.

Regarding `Cc1cc2nc3c(=O)[nH]c(=O)nc-3n(C[C@H](O)[C@H](O)[C@H](O)COP(=O)(O)O)c2cc1C` [FMN], on PydAc, the “spectrophotometric assay of reduced methyl viologen oxidation at 600 nm, anaerob” value was “omission of FMN from the assay mixture led to a large decrease in activity”.

B1: PydAc (Clostridium chromiireducens) (protein)
chain: MSSLLYKDISINEYVSGCLLCDEAPCRKACPHSLEADTIIRSLRFENKAGAVNKLPHPLPCDTCDEKQCKEACLKGKINEPVPIDKVMKAISTEPKVKEDDVDLSIDFCGINCENPFFLSSSVVGSNYEMVAKAFEMGWAGVAFKTIGMFVPKEVSPRFTALSKESVPFVGFKNIEQISDHTLEENIEFLKRLKKDYPSKIIIASIMGQNEDEWTKLAQLMTAAGADIIECNFSCPHMTSKGVGSDVGQNPDLVALYTKATRKGTNLPILAKMTPNVGNMEIPAIAAMEAGATGIAAINTIKSIMNLNLESFASEPNVEGKTSVGGYSGKAVKPIALRFIHDMKVCQELKDAPISGMGGIETWKDAAEFIALGCENLQITTSVMQYGYRIIDDLINGMKLYLSSQGYKKISEIVGNALPNIVPTDKLDRDSICYPRFDRQKCIGCGRCYLSCYDGGHQAIKVDENTRMPILLVDKCVGCQLCSTVCPAKAVAPGKRVKK
notes: FMN and two Fdx domains, no FAD/NADPH domain; strain C1 (DSM12136) is given only for the growth test
The term Km denotes the concentration of substrate that gives half-maximal velocity. As usually defined, the kcat is the maximal rate divided by the concentration of active sites. Regarding B1, in the data set “purified protein”, the Km came to 130 ± 30 µM and the kcat stood at 0.92 ± 0.04 s⁻¹.
